Test results as given in PMC7193609, “DNA replication machinery prevents Rad52-dependent single-strand annealing that leads to gross chromosomal rearrangements at centromeres”.

Target: T1, Rad52-6His-3Flag (wild type) (Schizosaccharomyces pombe (fission …, UniProt P36592 1-469))
T1 sequence: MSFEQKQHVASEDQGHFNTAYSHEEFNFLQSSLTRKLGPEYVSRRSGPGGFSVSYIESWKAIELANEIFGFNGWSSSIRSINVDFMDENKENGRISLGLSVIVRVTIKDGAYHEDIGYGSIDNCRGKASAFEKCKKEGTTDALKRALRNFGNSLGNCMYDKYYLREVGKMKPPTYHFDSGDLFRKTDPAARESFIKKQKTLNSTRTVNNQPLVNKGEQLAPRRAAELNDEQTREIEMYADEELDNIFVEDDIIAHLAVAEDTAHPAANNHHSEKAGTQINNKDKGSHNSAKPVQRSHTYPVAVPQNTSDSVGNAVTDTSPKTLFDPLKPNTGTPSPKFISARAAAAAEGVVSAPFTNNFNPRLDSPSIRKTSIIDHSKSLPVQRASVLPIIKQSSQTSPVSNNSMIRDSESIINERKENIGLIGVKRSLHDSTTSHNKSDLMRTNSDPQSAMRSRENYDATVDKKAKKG
Assay: EMSA; 0-200 nM Rad52, 2 nM DNA; complexes retained in well; EMSA: 32 mM Tris-HCl pH 7.8, 40 mM KCl, 0.8 mM DTT, 0.08 mg/mL BSA, 30 °C, 10 min; 10% native PAGE in 1x TAE
Conditions: protein: recombinant; tags: C-terminal 6His-3Flag; label: 5'-32P; single strand, 48 nt

B1: Oligo211 (ssDNA)
DNA: GAAGCATTTATCAGGGTTATTGTCTCATGAGCGGATACATATTTGAAT
Q: Does B1 bind?
A: binds
